This is an account of results in PMC2148189 (The Journal of Cell Biology, 1999).

The chains are these.
B2: His6–l-afadin-C199 (domain or fragment, UniProt O35889-1 1631-1829, looked up)
chain: DRVRQEEDGRHQEEERVKRDAEEKRRQEEGYYSRLEAERRRQHEEAARRLLEPEEPGLSRPPLPQDYEPPSQSSAPSAPPPPPQRNASYLKTQVLSPDSLFTAKFVAYDDDDEEENYVPAGPNSYSGSAGTTAGTYDAPRDTREKLSRSQDADLPGSSGAPENLTFRERQRLFSQGQDVSDKVKASRKLTELENELNTK

Common to all, as to assay: pull-down
The assay “His6–l-afadin-C199” addresses B2.
In assay [1] the target is T1, GST–ponsin-2-C (the COOH-terminal half) (mouse, UniProt Q62417-3 401-724).
T1 sequence (looked up): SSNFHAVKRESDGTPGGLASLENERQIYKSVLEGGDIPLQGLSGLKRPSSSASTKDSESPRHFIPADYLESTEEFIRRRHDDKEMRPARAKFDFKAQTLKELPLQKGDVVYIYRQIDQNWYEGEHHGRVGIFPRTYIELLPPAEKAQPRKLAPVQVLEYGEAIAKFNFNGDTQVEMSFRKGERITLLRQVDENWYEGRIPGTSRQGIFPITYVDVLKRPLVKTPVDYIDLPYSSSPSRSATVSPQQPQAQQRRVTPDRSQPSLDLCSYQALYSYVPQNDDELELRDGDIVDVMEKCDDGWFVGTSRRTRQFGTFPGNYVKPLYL

Assay [2] deals with T2, GST–ponsin-2-F (the full length) (mouse, UniProt Q62417-3 1-724).
T2 sequence (looked up): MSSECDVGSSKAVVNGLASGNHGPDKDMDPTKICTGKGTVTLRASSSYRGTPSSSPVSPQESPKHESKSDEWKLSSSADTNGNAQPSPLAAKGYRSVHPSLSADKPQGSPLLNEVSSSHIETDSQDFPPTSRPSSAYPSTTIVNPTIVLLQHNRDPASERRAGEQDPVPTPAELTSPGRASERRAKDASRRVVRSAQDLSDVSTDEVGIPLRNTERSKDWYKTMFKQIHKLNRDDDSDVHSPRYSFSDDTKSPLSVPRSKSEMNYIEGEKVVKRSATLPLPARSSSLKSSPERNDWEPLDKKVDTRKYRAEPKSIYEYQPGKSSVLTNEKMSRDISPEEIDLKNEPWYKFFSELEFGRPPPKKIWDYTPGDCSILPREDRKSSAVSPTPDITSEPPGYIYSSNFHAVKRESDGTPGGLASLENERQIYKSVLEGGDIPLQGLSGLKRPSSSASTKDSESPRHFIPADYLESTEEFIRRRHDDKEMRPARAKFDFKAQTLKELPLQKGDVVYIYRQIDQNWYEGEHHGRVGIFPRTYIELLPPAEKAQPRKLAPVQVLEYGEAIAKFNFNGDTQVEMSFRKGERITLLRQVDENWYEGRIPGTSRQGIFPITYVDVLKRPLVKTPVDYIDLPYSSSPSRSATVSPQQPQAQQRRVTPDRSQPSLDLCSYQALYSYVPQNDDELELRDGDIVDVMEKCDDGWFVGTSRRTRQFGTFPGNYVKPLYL

B1: GST–ponsin-2-SH3(2+3) (the second and third SH3 domains) (domain or fragment, mouse, UniProt Q62417-3 543-724, looked up)
chain: AEKAQPRKLAPVQVLEYGEAIAKFNFNGDTQVEMSFRKGERITLLRQVDENWYEGRIPGTSRQGIFPITYVDVLKRPLVKTPVDYIDLPYSSSPSRSATVSPQQPQAQQRRVTPDRSQPSLDLCSYQALYSYVPQNDDELELRDGDIVDVMEKCDDGWFVGTSRRTRQFGTFPGNYVKPLYL
Regarding B1, in the assay with His6–l-afadin-C199, the binding result was “binds”.

With B2, the binding result in assay [1] and in assay [2] was “binds” in each case.
